# Test results taken from patent publication US20100092460A1 (Ablynx, published 2010).
# Changes are numbered by the printed parent chain.
# T1: recombinant human CXCL11/I-TAC (human, UniProt O14625 22-94, biotinylated in the ELISA; 125I label in the radioligand assays)
# T1 sequence (looked up): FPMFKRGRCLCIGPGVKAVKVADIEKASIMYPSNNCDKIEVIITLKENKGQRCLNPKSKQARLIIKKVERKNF
# B1: Nanobody 11D5 (VHH)
# VHH: EVQLVESGGGLVQPGGSLRLSCAASRSGLSINAMGWFRQAPGKQRELVASITRGGPTIYADSVKGRFTISGDNAKNTVYLQMNSLKPEDTAVYYCNALIDYGLGFPIEYWGQGTQVTVSS
# notes: llama VHH against CXCL11; not shown: C-terminal c-myc tag and (His)6 tag coded by the vector
# B2: Nanobody 11A1 (VHH)
# VHH: EVQLVESGGGLVQAGGSLRLSCAASGFTLDDYAIGWFRQAPGKEREGVSCISSIDGDTVYADSVKGRFTASSDNAKNTAYLQMNSLKPEDTAVYYCAAGQGLLTAQALRWESYDYWGQGTQVTVSS
# notes: as for B1
# B3: Nanobody 8B2 (VHH)
# VHH: EVQLVESGGGLVQAGGSLRLSCAASGGTFASYGMGWFRQYPGKEREFVAAISRSGDSTYYADSVKGRFTISRDNAKNTVYLQMNSLKPEDTAVYYCAAGRFIPQLSAYDYWGQGTQVTVSS
# notes: llama VHH against CCL2; not shown: C-terminal c-myc tag and (His)6 tag coded by the vector
# B4: Nanobody 15H3 (VHH)
# VHH: EVQLVESGGGLVQAGGSLRLSCAASGGTFSNYAMGWFRQAPEKEREFVAAVIWRGGSTYYADSVKGRFTISRDNARNTVYLQMNSLKPEDTAVYYCAADLLGNSDYEPSSGFGSWGQGTQVTVSS
# notes: as for B3
# B5: Nanobody 15H4 (VHH)
# VHH: EVQLVESGGGLVQAGGSLRLSCAASGLTFSTYPMGWFRQAPGKEREFVAAINSGGSSTYYADSVKGRFTISRDNAKNTVYLQMNSLKPEDTAVYSCAVKIYSGSYSSPPGYNYWGQGTQVTVSS
# notes: as for B3
# B6: Nanobody 8E1 (VHH)
# VHH: B5 VHH with S57Y, K76V, V79I, Y113H
# notes: as for B3
# B7: Nanobody 8D5 (VHH)
# VHH: EVQLVESGGGLVQAGGSLRLSCAASGRTFSNYAMDWFRQAPGKEREFVAAISKSDGSTYYADSVKGRFTISRDNAKNTVYLQMNSLKPEDTAVYYCAAEGDSSPMGGVTYDYWGQGTQVTVSS
# notes: as for B3
# B8: Nanobody 8A7 (VHH)
# VHH: EVQLVESGGGLVQAGGSLRLSCAASGRTFSSYRMGWFRQAPEKEREFVAVISRSGGSTFYSNSVKGRFTISRDNAKNTVYLQMNSLKPEDTAVYYCAAGAQMGWAEASTYDYWGQGTQVTVSS
# notes: as for B3
# B9: Nanobody 15H7 (VHH)
# VHH: B8 VHH with E6K, V50L, S57T, K87E
# notes: as for B3
# B10: Nanobody 8E7 (VHH)
# VHH: B8 VHH with R27G, S52T, T58H, F59S
# notes: as for B3
# B11: Nanobody 8D7 (VHH)
# VHH: B8 VHH with V50L, S52T, S57T, K87E
# notes: as for B3
# B12: Nanobody 15F7 (VHH)
# VHH: B8 VHH with S21P, S57D, N62S
# notes: as for B3
# B13: Nanobody 8A5 (VHH)
# VHH: QVQLVESGGGLVQAGGSLALSCAASGIAFSIFDMAWFRQTPGKEREAVARISHGGGKDYLDSVKGRFTISRDNAKNTVTLQMTSLKPEDTAVYYCNAKNSFRNLWGQGTQVTVSS
# notes: as for B3
# B14: Nanobody 8E5 (VHH)
# VHH: EVQLVESGGGLVQAGGSLRLSCAASGGTFSSYRMAWFRQTPGKEREFVTLISRSGGTTDYTDSVKGRFTISRDNAKNTVYLQMNSLKPEDTAVYYCAAAGSMGWNHFREYDYWGQGTQVTVSS
# notes: as for B3
# B15: Nanobody 8D1 (VHH)
# VHH: EVQLVESGGGLVQPGGSLRLSCAASGFNLDDYAIGWFRQAPGKEREGVACASSTDGSTAYADSVKGRFTVSRDNAKNTVYLQMNSLKPEDTAVYYCAADPSDPFCPGLYYGMDYWGKGTLVTVSS
# notes: as for B3
# Biological target: T1, recombinant human CXCL11/I-TAC
# Assay: inhibition of 125I-CXCL11 binding to hCXCR3 (HEK293T cells), 10x diluted periplasm
row,binding result,Binder
1,binds,B1
2,binds,B2

# Biological target: T2, recombinant human CCL2/MCP1 (human, UniProt P13500 24-99, 125I label in the radioligand assays)
# T2 construct: Immunogen and selection antigen was the Mucin stalk Chimera (R&D 979-MC/CF)
# T2 sequence (P13500 24-99 limits assumed): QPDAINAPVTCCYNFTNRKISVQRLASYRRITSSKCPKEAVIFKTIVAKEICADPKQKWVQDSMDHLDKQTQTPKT
# Assay: ELISA, periplasmic extract on coated CCL2, anti-myc detection
row,binding result,Binder
1,binds,B3
2,binds,B4
3,binds,B5
4,binds,B6
5,binds,B7
6,binds,B8
7,binds,B9
8,binds,B10
9,binds,B11
10,binds,B12
11,binds,B13
12,binds,B14
13,binds,B15
